# T1: Human TNC-A2 + avi-tag + his6-tag (human, biotinylated in vivo at the avi-tag)
# T1 construct: also called hu TNC A2; A2 domain of human tenascin
# T1 chain: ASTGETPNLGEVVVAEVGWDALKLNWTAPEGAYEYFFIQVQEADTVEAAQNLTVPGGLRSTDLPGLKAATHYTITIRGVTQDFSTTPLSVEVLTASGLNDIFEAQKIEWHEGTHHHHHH
# How the values were obtained:
# [1] = target: T2, Human FAP ectodomain + poly-lys-tag + his6-tag (human, UniProt Q12884 27-760); test: first affinity maturation campaign: phage selections, ELISA and BIACORE kinetic screening
# T2 construct: also called hu FAP
# [2] = target: T3, Murine FAP ectodomain + poly-lys-tag + his6-tag (murine, UniProt P97321 27-761); test: as above
# T3 construct: also called mu FAP
# [3] = target: T2, Human FAP ectodomain + poly-lys-tag + …; test: SPR (ProteOn XPR36), purified Fab, monovalent binding
# [4] = target: T3, Murine FAP ectodomain + poly-lys-tag + …; test: as above
# [5] = target: T4, DPPIV expressed on HEK293 or CHO cells (Homo sapiens (Human), UniProt P27487 1-766); test: binding to DPPIV-expressing HEK293 or CHO cells
# T4 construct: also called close homologue of FAP
# [6] = target: T1, Human TNC-A2 + avi-tag + his6-tag; test: SPR (ProteOn XPR36), purified Fab, monovalent binding
# Procedure: Selections were carried out against E. coli expressed human TNC A2 which was cloned upstream an avi-tag and 6×his-tag (see SEQ ID NO: 57 of Table 5). The antigen was biotinylated in vivo upon expression. Selections have been carried out in solution as described for the primary TNC A2 selections using decreasing concentrations of human TNC A2 ranging from 100 to 2 nM. After identification of affinity-matured clones by ELISA, secondary screenings were carried out using a ProteOn XPR36 biosensor (Biorad) and kinetic rate constants and affinities were determined analyzing affinity-purified Fab preparations on the same instrument.
Binder,binding result [1],binding result [2],Kd [3] [pM],Kd [4] [pM],binding result [5],Kd [6] [pM]
"3F2 Fab (Fab, V domains shown, Fab fragment; also called clone 3F2) VH: not shown VL: EIVLTQSPGTLSLYPGERATLSCRASQSVTSSYLAWYQQKPGQAPRLLINVGSRRATGIPDRFSGSGSGTDFTLTISRLEPEDFAVYYCQQGIMLPPTFGQGTKVEIK",binds,binds,,,,
"4G8 Fab (Fab, V domains shown, Fab fragment; also called clone 4G8) VH: not shown VL: EIVLTQSPGTLSLSPGERATLSCRASQSVSRSYLAWYQQKPGQAPRLLIIGASTRATGIPDRFSGSGSGTDFTLTISRLEPEDFAVYYCQQGQVIPPTFGQGTKVEIK",binds,binds,,,,
"16F8 Fab (Fab, V domains shown, also called clone 16F8) VH: not shown VL: EIVLTQSPGTLSLSPGERATLSCRASQSVTSSYLAWYQQKPGQAPRLLINVGSRRATGIPDRFSGSGSGTDFTLTISRLEPEDFAVYYCQQGIMLPPTFGQGTKVEIK",,,301,3800,no binding,
"O2D7 Fab (Fab, V domains shown, also called clone O2D7) VH: not shown VL: EIVLTQSPGTLSLSPGERATLSCRASQSVTSSYLAWYQQKPGQAPRLLINVGSRRATGTPDRFSGSGSGTDFTLTISRLEPEDFAVYYCQQAIMLPPTFGQGTKVEIK",,,619,8300,no binding,
"5F1 Fab (Fab, V domains shown, also called clone 5F1) VH: EVQLLESGGGLVQPGGSLRLSCAASGFTFSSYAMSWVRQAPGKGLEWVSAIISSGASTYYADSVKGRFTISRDNSKNTLYLQMNSLRAEDTAVYYCAKGWFGGFNYWGQGTLVTVSS VL: EIVLTQSPGTLSLSPGERATLSCRASQSVTSSYLAWYQQKPGQAPRLLINVGSRRATGIPDRFSGSGSGTDFTLTISRLEPEDFAVYYCQQGIMLPPTFGQGTKVEIK",,,243,4100,no binding,
"14B3 Fab (Fab, V domains shown, also called clone 14B3) VH: EVQLLESGGGLVQPGGSLRLSCAASGFTFSSYAMSWVRQAPGKGLEWVSAILASGAITYYADSVKGRFTISRDNSKNTLYLQMNSLRAEDTAVYYCAKGWFGGFNYWGQGTLVTVSS VL: EIVLTQSPGTLSLSPGERATLSCRASQSVTSSYLAWYQQKPGQAPRLLINVGSRRATGIPDRFSGSGSGTDFTLTISRLEPEDFAVYYCQQGIMLPPTFGQGTKVEIK",,,377,3800,no binding,
"20G8 Fab (Fab, V domains shown, also called clone 20G8) VH: EVQLLESGGGLVQPGGSLRLSCAASGFTFSSYAMSWVRQAPGKGLEWVSAIIGSGSRTYYADSVKGRFTISRDNSKNTLYLQMNSLRAEDTAVYYCAKGWFGGFNYWGQGTLVTVSS VL: EIVLTQSPGTLSLSPGERATLSCRASQSVTSSYLAWYQQKPGQAPRLLINVGSRRATGIPDRFSGSGSGTDFTLTISRLEPEDFAVYYCQQGIMLPPTFGQGTKVEIK",,,69,2800,no binding,
"4B9 Fab (Fab, V domains shown, also called clone 4B9) VH: EVQLLESGGGLVQPGGSLRLSCAASGFTFSSYAMSWVRQAPGKGLEWVSAIIGSGASTYYADSVKGRFTISRDNSKNTLYLQMNSLRAEDTAVYYCAKGWFGGFNYWGQGTLVTVSS VL: EIVLTQSPGTLSLSPGERATLSCRASQSVTSSYLAWYQQKPGQAPRLLINVGSRRATGIPDRFSGSGSGTDFTLTISRLEPEDFAVYYCQQGIMLPPTFGQGTKVEIK",,,157,3300,no binding,
"19G1 Fab (Fab, V domains shown, also called clone 19G1) VH: EVQLLESGGGLVQPGGSLRLSCAASGFTFSSYAMSWVRQAPGKGLEWVSAIISSGGLTYYADSVKGRFTISRDNSKNTLYLQMNSLRAEDTAVYYCAKGWFGGFNYWGQGTLVTVSS VL: EIVLTQSPGTLSLSPGERATLSCRASQSVTSSYLAWYQQKPGQAPRLLINVGSRRATGIPDRFSGSGSGTDFTLTISRLEPEDFAVYYCQQGIMLPPTFGQGTKVEIK",,,76,2600,no binding,
"2B10_6A12 Fab (Fab, V domains shown, also called clone 2B10-6A12) VH: QVQLVQSGAEVKKPGSSVKVSCKASGGTFSSYAISWVRQAPGQGLEWMGVIIPILGTANYAQKFQGRVTITADKSTSTAYMELSSLRSEDTAVYYCARLYGYAYYGAFDYWGQGTTVTVSS VL: DIQMTQSPSSLSASVGDRVTITCRASQGIRNDLGWYQQKPGKAPKRLIYAASSLQSGVPSRFSGSGSGTEFTLTISSLQPEDFATYYCLQNGLQPATFGQGTKVEIK",,,,,,290
"2B10_O1F7 Fab (Fab, V domains shown, also called clone 2B10_O1F7) VH: QVQLVQSGAEVKKPGSSVKVSCKASGGTFSSYAISWVRQAPGQGLEWMGGIIPIFGTANYAQKFQGRVTITADKSTSTAYMELSSLRSEDTAVYYCARLYGYAYYGAFDYWGQGTTVTVSS VL: DIQMTQSPSSLSASVGDRVTITCRASQGIRNVLGWYQQKPGKAPKRLIYDASSLQSGVPSRFSGGGSGTEFTLTISSLQPEDFATYYCLQNGLQPATFGQGTKVEIK",,,,,,56
"2B10_6H10 Fab (Fab, V domains shown, also called clone 2B10-6H10) VH: QVQLVQSGAEVKKPGSSVKVSCKASGGTFSSYAISWVRQAPGQGLEWMGGIIPIFGTANYAQKFQGRVTITADKSTSTAYMELSSLRSEDTAVYYCARLYGYAYYGAFDYWGQGTTVTVSS VL: DIQMTQSPSSLSASVGDRVTITCRASQGIRNVLGWYQQKPGKAPKRLIQAATSLQSGVPSRFSGGGSGTEFTLTISSLQPEDFATYYCLQNGLQPATFGQGTKVEIK",,,,,,810

# The remaining lines, values ahead:
binding result [1],binding result [2],Kd [3] [pM],Kd [4] [pM],binding result [5],Kd [6] [pM],Binder
,,200,9,no binding,,"28H1 Fab (Fab, V domains shown, also called clone 28H1) VH: EVQLLESGGGLVQPGGSLRLSCAASGFTFSSHAMSWVRQAPGKGLEWVSAIWASGEQYYADSVKGRFTISRDNSKNTLYLQMNSLRAEDTAVYYCAKGWLGNFDYWGQGTLVTVSS VL: EIVLTQSPGTLSLSPGERATLSCRASQSVSRSYLAWYQQKPGQAPRLLIIGASTRATGIPDRFSGSGSGTDFTLTISRLEPEDFAVYYCQQGQVIPPTFGQGTKVEIK"
,,690,3200,no binding,,"5B8 Fab (Fab, V domains shown, also called clone 5B8) VH: EVQLLESGGGLVQPGGSLRLSCAASGFTFSSYAMSWVRQAPGKGLEWVSAIWGGGRSTYYADSVKGRFTISRDNSKNTLYLQMNSLRAEDTAVYYCAKGWFGGFNYWGQGTLVTVSS VL: EIVLTQSPGTLSLSPGERATLSCRASQSVTSSYLAWYQQKPGQAPRLLINVGSRRATGIPDRFSGSGSGTDFTLTISRLEPEDFAVYYCQQGIMLPPTFGQGTKVEIK"
,,160,3700,no binding,,"O3C9 Fab (Fab, V domains shown, also called clone O3C9) VH: EVQLLESGGGLVQPGGSLRLSCAASGFTFSSFAMSWVRQSPGKGLEWVSAIIGSGSNTYYADSVKGRFTISRDNSKNTLYLQMNSLRAEDTAVYYCAKGWFGGFNYWGQGTLVTVSS VL: EIVLTQSPGTLSLSPGERATLSCRASQSVTSSYLAWYQQKPGQAPRLLINVGSRRATGIPDRFSGSGSGTDFTLTISRLEPEDFAVYYCQQGIMLPPTFGQGTKVEIK"
,,193,3400,no binding,,"16F1 Fab (Fab, V domains shown, also called clone 16F1) VH: EVQLLESGGGLVQPGGSLRLSCAASGFTFSSYAMSWVRQAPGKGLEWVSGIIGSGGITYYADSVKGRFTISRDNSKNTLYLQMNSLRAEDTAVYYCAKGWFGGFNYWGQGTLVTVSS VL: EIVLTQSPGTLSLSPGERATLSCRASQSVTSSYLAWYQQKPGQAPRLLINVGSRRATGIPDRFSGSGSGTDFTLTISRLEPEDFAVYYCQQGIMLPPTFGQGTKVEIK"
,,,,,191,"2B10_C3B6 Fab (Fab, V domains shown, also called clone 2B10_C3B6) VH: QVQLVQSGAEVKKPGSSVKVSCKASGGTFSSYAISWVRQAPGQGLEWMGAIIPILGIANYAQKFQGRVTITADKSTSTAYMELSSLRSEDTAVYYCARLYGYAYYGAFDYWGQGTTVTVSS VL: DIQMTQSPSSLSASVGDRVTITCRASQGIRNDLGWYQQKPGKAPKRLIYAASSLQSGVPSRFSGSGSGTEFTLTISSLQPEDFATYYCLQNGLQPATFGQGTKVEIK"
,,,,,147,"2B10_O7D8 Fab (Fab, V domains shown, also called clone 2B10_O7D8) VH: QVQLVQSGAEVKKPGSSVKVSCKASGGTFSSYAISWVRQAPGQGLEWMGGIIPIFGTANYAQKFQGRVTITADKSTSTAYMELSSLRSEDTAVYYCARLYGYAYYGAFDYWGQGTTVTVSS VL: DIQMTQSPSSLSASVGDRVTITCRASQSIRNVLGWYQQKPGKAPKRLIYDVSSLQSGVPSRFSGGGSGTEFTLTISSLQPEDFATYYCLQNGLQPATFGQGTKVEIK"
,,,,,497,"2B10_C3A6 Fab (Fab, V domains shown, also called clone 2B10_C3A6) VH: QVQLVQSGAEVKKPGSSVKVSCKASGGTFSSYAISWVRQAPGQGLEWMGGIIPIFGTANYAQKFQGRVTITADKSTSTAYMELSSLRSEDTAVYYCARLYGYAYYGAFDYWGQGTTVTVSS VL: DIQMTQSPSSLSASVGDRVTITCRASQGIRNVLGWYQQKPGKAPKRLIYDSSSLQSGVPSRFSGGGSGTEFTLTISSLQPEDFATYYCLQNGLQPATFGQGTKVEIK"
